Reference: publication PMC10815852, “A Non-Functional Carbon Dioxide-Mediated Post-Translational Modification on Nucleoside Diphosphate Kinase of Arabidopsis thaliana” (International Journal of Molecular Sciences, 2024)
Residue numbers refer to the chain shown, from its start. “And” between values parts separate entries of the source, which are not always exact repeats. Equal values may be shown once.

T1: AtNDK1 (Arabidopsis nucleoside diphosphate kinase 1) (Arabidopsis thaliana, UniProt P39207)
T1 construct: gene NDK1; full open reading frame in pGEX6P-1 (BamHI/EcoRI, synthetic), GST tag cut with PreScission protease, E. coli T7 Express, size exclusion purified, hexamer
T1 sequence (P39207 1-149): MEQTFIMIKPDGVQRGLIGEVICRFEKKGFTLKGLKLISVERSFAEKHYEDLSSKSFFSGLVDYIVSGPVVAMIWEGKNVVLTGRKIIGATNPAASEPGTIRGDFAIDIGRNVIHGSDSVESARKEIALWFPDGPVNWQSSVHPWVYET

B1: Arabidopsis thaliana nucleoside diphosphate kinase 1 (AtNDK1), wild-type (enzyme, UniProt P39207 1-149, looked up)
chain: T1 sequence (P39207 1-149)
notes: Arabidopsis thaliana NDK1, open reading frame cloned into BamHI/EcoRI of pGEX6P-1; Hexamer by analytical SEC; also called WT AtNDK1; Arabidopsis NDK1; source: E. coli T7 express, purified (GSTrap, PreScission cleavage, glutathione agarose, SEC); not shown: GST, N-terminal, cleaved
B2: AtNDK1-K9R (enzyme, Arabidopsis thaliana, UniProt P39207 1-149, looked up)
chain: T1 sequence (P39207 1-149) with K9R
notes: Arabidopsis thaliana NDK1, mutant open reading frame cloned into BamHI/EcoRI of pGEX6P-1; Elutes as a mix of hexamer and dimer by analytical SEC; source: E. coli T7 express, purified (GSTrap, PreScission cleavage, glutathione agarose, SEC); not shown: GST, N-terminal, cleaved
B3: AtNDK1-K9E (enzyme, Arabidopsis thaliana, UniProt P39207 1-149, looked up)
chain: T1 sequence (P39207 1-149) with K9E
notes: Arabidopsis thaliana NDK1, mutant open reading frame cloned into BamHI/EcoRI of pGEX6P-1; Elutes as a mix of hexamer and dimer by analytical SEC, dimer peak the larger; source: E. coli T7 express, purified (GSTrap, PreScission cleavage, glutathione agarose, SEC); not shown: GST, N-terminal, cleaved
B4: AtNDK1-K9A (enzyme, Arabidopsis thaliana, UniProt P39207 1-149, looked up)
chain: T1 sequence (P39207 1-149) with K9A
notes: as for B2

Legend:
[1] = target: T1, AtNDK1 (Arabidopsis nucleoside diphosphate kinase 1); test: NDK assay, ATP formation by ATP determination kit; format: biochemical
[2] = target: T1, AtNDK1 (Arabidopsis nucleoside diphosphate kinase 1); test: NDK assay, ATP formation by ATP determination kit; format: biochemical; settings: substrate inhibition by ADP (fit of Michaelis-Menten data with 0-100 μM ADP); 50 μM GTP; 2 mM MgCl2, pH 7.6, 25 °C
[3] = substrate: Nc1ncnc2c1ncn2[C@@H]1O[C@H](COP(=O)(O)OP(=O)(O)O)[C@@H](O)[C@H]1O; test: NDK assay, ATP formation by ATP determination kit; format: biochemical, Arabidopsis thaliana; settings: 50 μM GTP fixed, 0-100 μM ADP, substrate inhibition model, 2 mM MgCl2, pH 7.6, 25 °C
[4] = substrate: Nc1nc2c(ncn2[C@@H]2O[C@H](COP(=O)(O)OP(=O)(O)OP(=O)(O)O)[C@@H](O)[C@H]2O)c(=O)[nH]1; test: NDK assay, ATP formation by ATP determination kit; format: biochemical, Arabidopsis thaliana; settings: 35 μM ADP fixed, 0-100 μM GTP, 2 mM MgCl2, pH 7.6, 25 °C
[5] = target: the molecule itself; test: SEC; analytical SEC, Superose 6 increase 10/300 GL; 30 mM Tris pH 7.9, 200 mM NaCl, 1 mM DTT, 1 mM EDTA; sample ~1 mg/mL, 100 uL injected; size and oligomeric state approximated from retention volume and a standard curve; self-association (hexamer, dimer)
[6] = target: the molecule itself; test: as above; remark: listed apart in the source

Molecule | IC50 [1] [nM] | Ki [2] [nM] | Km [3] [µM] | Km [4] [µM] | stoichiometry N [5] | relative absorbance maximum of the (AtNDK1)2 peak [6] | relative absorbance maximum of the (AtNDK1)6 peak [6]
Nc1nc2c(ncn2[C@@H]2O[C@H](COP(=O)(O)OP(=O)(O)OP(O)(O)=S)[C@@H](O)[C@H]2O)c(=O)[nH]1 [GTPγS, guanosine 5′-O-[γ-thio] triphosphate] | 681 | – | – | – | – | – | –
Nc1ncnc2c1ncn2[C@@H]1O[C@H](COP(=O)(O)OP(=O)(O)O)[C@@H](O)[C@H]1O [ADP] | – | 132000 | – | – | – | – | –
B1 | – | – | 24.6 | 22.4 | 6 | 0.1 | 1
B2 | – | – | – | – | 6 and 2 | 0.25 | 1
B3 | – | – | – | – | 6 and 2 | 1 | 0.4
B4 | – | – | – | – | 6 and 2 | 0.73 | 1
